The target in assay [1] is T1, Rpt1 (subunit of the base) (yeast, UniProt P33299 1-467).
T1 sequence: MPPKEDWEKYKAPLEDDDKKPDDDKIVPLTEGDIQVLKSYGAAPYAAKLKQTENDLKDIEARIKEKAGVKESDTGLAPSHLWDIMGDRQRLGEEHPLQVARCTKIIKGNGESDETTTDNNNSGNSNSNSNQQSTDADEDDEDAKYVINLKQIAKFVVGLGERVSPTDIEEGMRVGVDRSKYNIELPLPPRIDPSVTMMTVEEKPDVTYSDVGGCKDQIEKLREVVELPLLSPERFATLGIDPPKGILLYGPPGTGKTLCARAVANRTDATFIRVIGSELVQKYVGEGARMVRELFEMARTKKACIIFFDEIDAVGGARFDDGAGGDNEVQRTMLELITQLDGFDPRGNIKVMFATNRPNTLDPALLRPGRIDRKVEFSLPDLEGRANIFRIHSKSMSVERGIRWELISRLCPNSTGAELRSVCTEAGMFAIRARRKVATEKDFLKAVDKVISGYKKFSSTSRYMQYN
Kind of assay: cryo-EM structure.

Assay [2] addresses Rpt2 (subunit of the base) (yeast, UniProt P40327 1-437). Kind of assay: cryo-EM structure.

Chain of Rpt2 (subunit of the base) (P40327 whole entry): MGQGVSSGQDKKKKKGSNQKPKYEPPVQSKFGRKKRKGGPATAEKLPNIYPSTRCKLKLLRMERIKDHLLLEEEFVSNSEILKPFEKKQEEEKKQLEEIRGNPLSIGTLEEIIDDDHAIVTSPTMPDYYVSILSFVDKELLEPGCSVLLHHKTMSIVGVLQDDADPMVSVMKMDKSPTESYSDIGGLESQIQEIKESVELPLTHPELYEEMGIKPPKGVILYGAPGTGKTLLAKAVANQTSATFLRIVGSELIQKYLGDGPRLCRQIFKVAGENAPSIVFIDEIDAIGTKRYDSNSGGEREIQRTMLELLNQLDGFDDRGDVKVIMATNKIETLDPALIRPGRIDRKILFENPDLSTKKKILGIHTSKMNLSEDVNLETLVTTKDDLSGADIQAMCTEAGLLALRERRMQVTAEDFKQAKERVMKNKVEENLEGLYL

B1: CP subunit α4 (natural protein)
chain: MSGYDRALSIFSPDGHIFQVEYALEAVKRGTCAVGVKGKNCVVLGCERRSTLKLQDTRITPSKVSKIDSHVVLSFSGLNADSRILIEKARVEAQSHRLTLEDPVTVEYLTRYVAGVQQRYTQSGGVRPFGVSTLIAGFDPRDDEPKLYQTEPSGIYSSWSAQTIGRNSKTVREFLEKNYDRKEPPATVEECVKLTVRSLLEVVQTGAKNIEITVVKPDSDIVALSSEEINQYVTQIEQEKQEQQEQDKKKKSNH
As to B1, the binding result in assay [1] and in assay [2] was “binds” each time.

B2: CP subunit α3 (natural protein)
chain: MGSRRYDSRTTIFSPEGRLYQVEYALESISHAGTAIGIMASDGIVLAAERKVTSTLLEQDTSTEKLYKLNDKIAVAVAGLTADAEILINTARIHAQNYLKTYNEDIPVEILVRRLSDIKQGYTQHGGLRPFGVSFIYAGYDDRYGYQLYTSNPSGNYTGWKAISVGANTSAAQTLLQMDYKDDMKVDDAIELALKTLSKTTDSSALTYDRLEFATIRKGANDGEVYQKIFKPQEIKDILVKTGITKKDEDEEADEDMK
Regarding B2, the binding result in assay [2] is given as “binds”.

For the origin of these results see article PMC3687086 (Nature, 2013).
